# Measurements reported in article PMC11086168, “Combining the Benefits of Biotin–Streptavidin Aptamer Immobilization with the Versatility of Ni-NTA Regeneration Strategies for SPR”.
# Columns and labels:
# [1] = target: T1, 6xHis-streptavidin (His-SA) (UniProt P22629 25-183); experiment: EMSA; no biotin; 1 µM 29mer; LSPR on Ni-NTA chip with His-SA capture; sample buffer PBS-T (1X PBS, 0.05% Tween 20); immobilization in PBS-T or PBS-I (1X PBS, 300 mM NaCl total, pH 8.0); 20; conditions: protein: commercial; tags: 6xHis; chain copies: 4
# [2] = target: T1, 6xHis-streptavidin (His-SA); experiment: EMSA; binding through 5' biotin; LSPR on Ni-NTA chip with His-SA capture; sample buffer PBS-T (1X PBS, 0.05% Tween 20); immobilization in PBS-T or PBS-I (1X PBS, 300 mM NaCl total, pH 8.0); 20; conditions: protein: commercial; tags: 6xHis; chain copies: 4; label: 5' biotin
# thrombin [3] = target: T2, thrombin (human plasma, UniProt P00734;P00734 328-363;364-622); experiment: SPR (LSPR); Experiment 1; PBS-T; printed as KA from Hill fit (half-saturation, in nM); aptamer immobilized on His-SA/Ni-NTA; BSA present; LSPR on Ni-NTA chip with His-SA capture; sample buffer PBS-T (1X PBS, 0.05% Tween 20); immobilization in PBS-T or PBS-I (1X PBS, 300 mM NaCl total, pH 8.0); 20
# thrombin [4] = target: T2, thrombin; experiment: SPR (LSPR); Experiment 8; reused surface of Experiment 7, no new immobilization; printed as KA from Hill fit; BSA present; LSPR on Ni-NTA chip with His-SA capture; sample buffer PBS-T (1X PBS, 0.05% Tween 20); immobilization in PBS-T or PBS-I (1X PBS, 300 mM NaCl total, pH 8.0); 20
# thrombin [5] = target: T2, thrombin; experiment: SPR (LSPR); Experiment 7; surface immobilized in PBS-I; printed as KA from Hill fit; BSA present; LSPR on Ni-NTA chip with His-SA capture; sample buffer PBS-T (1X PBS, 0.05% Tween 20); immobilization in PBS-T or PBS-I (1X PBS, 300 mM NaCl total, pH 8.0); 20
# T1 sequence (P22629 25-183): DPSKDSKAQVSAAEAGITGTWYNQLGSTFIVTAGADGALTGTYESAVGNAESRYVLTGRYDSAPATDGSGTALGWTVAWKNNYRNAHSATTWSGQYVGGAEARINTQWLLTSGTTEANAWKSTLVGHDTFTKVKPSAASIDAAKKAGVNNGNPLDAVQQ
Binder,binding result [1],binding result [2],Kd (thrombin [3]),Kd (thrombin [4]),Kd (thrombin [5])
AGTCCGTGGTAGGGCAGGTTGGGGTGACT (structured_DNA) [unlabeled 29mer],no binding,–,–,–,–
"AGTCCGTGGTAGGGCAGGTTGGGGTGACT (structured_DNA, 5' biotin (5Biosg)) [B-29mer (biotinylated thrombin-binding aptamer)]",–,binds,31.2 nM,10.3 nM,18.6 nM
